For five substances, percent reduction of the binding of R7BP-FL with the RGS7/Gβ5 duplex and Kd results are on record in paper PMC6744478.

Experiment [1] has as its target RGS7/TS-Gβ5 duplex (human) (UniProt P49802). As to the kind of experiment: pull-down; Expi293 cells co-transfected with RGS7, TS-Gβ5, R7BP-HIS and either WDR61 (sample A) or R7BPΔNC (sample B); lysate on MagStrep type3 XT beads, 4 °C, one hour; Western blot with anti-Gβ5 and anti-R7BP, bands quantified. (In general: In western blotting, separated proteins are transferred to a membrane and probed.)

In experiment [2] the target is R7BPΔNC (construct R7BPΔNC-TEV-TS) (human) (UniProt Q6MZT1). Description: SPR; OpenSPR (Nicoya), Streptavidin sensor chip; tagged R7BP variant as ligand, purified R7-RGS/Gβ5 duplex as analyte at 3–5 concentrations; PBS pH 7.4, 0.005% Tween20; 25 µL per minute; 1:1-binding model; two independent experiments. (In general: SPR reads the build-up and loss of mass on a sensor chip optically.)

Chain of RGS6/Gβ5 duplex (P49758 whole entry): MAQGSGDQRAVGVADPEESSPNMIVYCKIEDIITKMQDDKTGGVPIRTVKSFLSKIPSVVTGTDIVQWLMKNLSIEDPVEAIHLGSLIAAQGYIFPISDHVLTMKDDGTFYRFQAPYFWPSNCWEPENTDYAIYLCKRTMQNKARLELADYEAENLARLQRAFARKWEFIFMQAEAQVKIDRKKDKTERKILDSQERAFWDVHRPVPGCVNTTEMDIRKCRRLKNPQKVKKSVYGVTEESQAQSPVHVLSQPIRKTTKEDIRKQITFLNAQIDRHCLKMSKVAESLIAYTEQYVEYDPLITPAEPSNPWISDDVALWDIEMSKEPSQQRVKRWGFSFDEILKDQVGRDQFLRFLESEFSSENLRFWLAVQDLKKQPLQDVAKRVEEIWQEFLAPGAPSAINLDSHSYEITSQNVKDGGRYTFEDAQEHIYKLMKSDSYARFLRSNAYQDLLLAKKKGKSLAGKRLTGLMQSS
Chain of RGS6/Gβ5 duplex (O14775 43-395): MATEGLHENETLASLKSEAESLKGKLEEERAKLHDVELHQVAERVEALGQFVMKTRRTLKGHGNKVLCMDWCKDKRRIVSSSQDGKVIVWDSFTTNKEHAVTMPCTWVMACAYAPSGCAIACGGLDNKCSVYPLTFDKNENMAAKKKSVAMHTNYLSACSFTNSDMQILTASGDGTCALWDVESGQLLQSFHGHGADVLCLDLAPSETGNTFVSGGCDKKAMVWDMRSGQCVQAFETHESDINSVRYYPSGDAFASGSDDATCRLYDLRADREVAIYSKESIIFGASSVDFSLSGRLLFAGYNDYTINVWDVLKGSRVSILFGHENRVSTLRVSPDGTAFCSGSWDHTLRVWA
Chain of RGS11/Gβ5 duplex (O94810 whole entry): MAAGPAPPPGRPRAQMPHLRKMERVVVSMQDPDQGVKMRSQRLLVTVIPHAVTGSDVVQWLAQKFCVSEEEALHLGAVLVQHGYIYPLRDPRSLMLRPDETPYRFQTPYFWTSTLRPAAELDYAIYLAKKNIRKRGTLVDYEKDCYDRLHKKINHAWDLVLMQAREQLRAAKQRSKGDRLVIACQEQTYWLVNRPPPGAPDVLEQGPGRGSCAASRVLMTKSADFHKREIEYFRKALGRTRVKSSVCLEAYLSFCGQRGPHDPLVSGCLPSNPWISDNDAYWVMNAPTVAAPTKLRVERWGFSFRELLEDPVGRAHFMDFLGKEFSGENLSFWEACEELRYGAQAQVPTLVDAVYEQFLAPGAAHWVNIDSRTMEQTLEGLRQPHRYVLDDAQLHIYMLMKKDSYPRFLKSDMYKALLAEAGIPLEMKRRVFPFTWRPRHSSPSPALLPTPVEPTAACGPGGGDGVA
Chain of RGS11/Gβ5 duplex (O14775 43-395): as the sequence (O14775 43-395) above
Chain of RGS7/Gβ5 duplex (P49802 whole entry): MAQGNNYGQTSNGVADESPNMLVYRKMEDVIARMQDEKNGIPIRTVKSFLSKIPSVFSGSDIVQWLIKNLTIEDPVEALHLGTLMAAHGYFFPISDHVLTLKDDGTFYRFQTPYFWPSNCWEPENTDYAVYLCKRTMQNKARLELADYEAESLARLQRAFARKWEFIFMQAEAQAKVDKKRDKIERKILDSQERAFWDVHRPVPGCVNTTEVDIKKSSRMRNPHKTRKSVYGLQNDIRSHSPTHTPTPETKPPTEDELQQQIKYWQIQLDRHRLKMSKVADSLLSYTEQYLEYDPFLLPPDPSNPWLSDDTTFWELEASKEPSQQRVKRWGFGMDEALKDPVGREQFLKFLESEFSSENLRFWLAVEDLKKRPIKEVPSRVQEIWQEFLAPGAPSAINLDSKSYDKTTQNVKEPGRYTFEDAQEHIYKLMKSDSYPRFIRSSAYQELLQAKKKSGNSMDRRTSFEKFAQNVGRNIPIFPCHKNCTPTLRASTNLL
Chain of RGS7/Gβ5 duplex (O14775 43-395): as the sequence (O14775 43-395) above
Chain of RGS7/TS-Gβ5 duplex (human) (P49802 whole entry, chain 1 of 2): as the sequence (P49802 whole entry) above
Chain of RGS7/TS-Gβ5 duplex (human) (O14775 43-395, chain 2 of 2, further chain): as the sequence (O14775 43-395) above
Chain of RGS9/Gβ5 duplex (O75916 whole entry): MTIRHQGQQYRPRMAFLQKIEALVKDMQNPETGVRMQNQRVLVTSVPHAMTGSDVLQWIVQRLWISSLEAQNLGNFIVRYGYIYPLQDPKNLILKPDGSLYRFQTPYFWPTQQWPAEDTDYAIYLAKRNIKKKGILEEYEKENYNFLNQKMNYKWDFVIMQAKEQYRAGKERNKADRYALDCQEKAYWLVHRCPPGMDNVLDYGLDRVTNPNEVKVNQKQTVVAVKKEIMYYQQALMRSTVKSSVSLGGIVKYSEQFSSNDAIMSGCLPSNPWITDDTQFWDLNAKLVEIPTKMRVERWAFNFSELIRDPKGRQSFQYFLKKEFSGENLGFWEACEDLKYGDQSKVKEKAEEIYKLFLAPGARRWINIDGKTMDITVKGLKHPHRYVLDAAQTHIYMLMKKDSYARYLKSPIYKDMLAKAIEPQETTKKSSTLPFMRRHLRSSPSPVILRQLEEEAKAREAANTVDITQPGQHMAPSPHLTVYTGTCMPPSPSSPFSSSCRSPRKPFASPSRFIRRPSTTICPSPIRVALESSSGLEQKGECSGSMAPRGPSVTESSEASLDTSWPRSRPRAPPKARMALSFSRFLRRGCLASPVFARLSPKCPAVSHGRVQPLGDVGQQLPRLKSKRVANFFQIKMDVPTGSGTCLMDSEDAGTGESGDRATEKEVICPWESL
Chain of RGS9/Gβ5 duplex (O14775 43-395): as the sequence (O14775 43-395) above

For the substance “R7BPΔNC (construct R7BPΔNC-TEV-TS) (from UniProt Q6MZT1 21-223) (domain or fragment)”, the percent reduction of the binding of R7BP-FL with the RGS7/Gβ5 duplex in experiment [1] is 50%.

As usually defined, the Kd is the free concentration of one partner at which half of the binding sites on the other are occupied at equilibrium, for simple one-to-one binding. Low values mean tighter binding, high ones weaker binding. In experiment [2], “RGS6/Gβ5 duplex (from UniProt P49758 1-472; O14775-2 1-353) (complex)” came in with an equilibrium dissociation constant (Kd) of 1.5 nM.

In turn, “RGS7/Gβ5 duplex (from UniProt P49802 1-495; O14775-2 1-353) (complex)” yielded an equilibrium dissociation constant (Kd) in experiment [2] of 2.3 nM.

“RGS9/Gβ5 duplex (from UniProt O75916 1-674; O14775-2 1-353) (complex)”: the dissociation constant (Kd) in experiment [2] came to 3.2 nM.

Consider “RGS11/Gβ5 duplex (from UniProt O94810 1-467; O14775-2 1-353) (complex)”, for which the equilibrium dissociation constant (Kd) in experiment [2] was determined as 1.5 nM.
